Results from the nanobody polyreactivity screen of Harvey et al. (2022).

experiment: yeast display, Sf9 membrane polyspecificity reagent, FACS + sequencing; frameworks hold sequencing errors
Procedure, shortened: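 In a synthetic yeast display library (Saccharomyces cerevisiae BJ5465), nanobody expression was induced with galactose for 36–48 hours. FACS gates were set low and high (top ~1%) using anti-HA fluorescence for expression and streptavidin fluorescence for binding of the Sf9 membrane reagent. Each polyreactivity label is drawn from the gate of origin.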

Row | Sequence | polyreactivity (PSR sort gate)
1 | QVQLVESGGGLVQAGGSLRLICAASGIIFRYYAMGWYRQAPGKERELVASISRGGSTYYADSVKGRFTISRDNAKNTVYLQMNSLKPEDTAVYYCAADVYPVYLYGYEYCGQGTQVTVSS | high polyreactivity
2 | QVQLVESGGGLVQAGGSLRLICAASGITFAVYAMGWYSQAPGKERELVAASSVSGGSTYYADSVKGRFTISRDNAKNTVYLQMNSLKPEATAVYYGAADRYGHFGDWGQGTQVTVSS | high polyreactivity
3 | QVQLVESGGGLVQAGGSLRLICAASGITFLQYARGWYRQATGKERELVAVISRGSRTYYADSVKGRFTISRDNAKNTFYLQMNSLKPEDTAVYYCAAVRGLAVGYDYWGQGTQVTVSS | high polyreactivity
4 | QVQLVESGGGLVQAGGSLRLICAASGITFLRYAMGWYRQAPGKERELVAAISTRGGSTYYADSVKGRFTISRDNAKNTVYLQMNSLKPEDTAVYYCAAAGVTGSYGGKGRWYDFWGQGSQVTVSS | high polyreactivity
5 | QVQLVESGGGLVQAGGSLRLICAASGITLWTYAMGWYRQAPGKERELVAAIRRGGSTYYADSVKGRFTISRDNAKYTVFLQMNSLKPEDTAVYYCNTVSFYPYYYWGQGTQVTVSS | high polyreactivity
6 | QVQLVESGGGLVQAGGSLRLICAASGITYDQNAMGWYRQAPGKDRDLVAAITRGSSTNYADSVKGRVTISRDNAKNTVYLKMNSVKPEDTAVYYCAAAVLGSSKSEVDPDRPEYYYWGQGTQVTVSS | low polyreactivity
7 | QVQLVESGGGLVQAGGSLRLICAASGLIFPSYAMGWYRQAPGKERELVAGINSGGSTNYADSVKGRFTISRDNAKNTVYLQMNSLKPEDTAVYYCAKDNNYYWYVSPRDYWGQGTQVTVSS | low polyreactivity
8 | QVQLVESGGGLVQAGGSLRLICAASGLTFHPYAMGWYRPAPGKERELVAAISSRGTSTYYADSVKGRFTISRDNAQNTVYLQMNCLKPEDTAVYYFAARHGPRAEAMYYWGQGTQVTVSS | high polyreactivity
9 | QVQLVESGGGLVQAGGSLRLICAASGLTFHRYAMGWYRQAPGKERELVAAINYSGGRTYYADSVKGRFTISRDNAKNTVYLQMNSLKPEDTAVYYCAAPRASGYYWGQGTQVTVSS | high polyreactivity
10 | QVQLVESGGGLVQAGGSLRLICAASGLTFKRYAMGWYRQAPGKEREFVAAISAGGASTHYADSVKGRFTISRDNAKNTVYLQMNSLKPEDTAVYYCATDYRSFRPSFGYWGQGTQVTVSS | low polyreactivity
11 | QVQLVESGGGLVQAGGSLRLICAASGLTFKSNTMGWYRQAPGKERELVAAISRSGGRTYYADSVKGRFTLSRDNAKNTVYLQMNSLKPEDTAVYYCAALYHTYLTWREDYWGQGTQVTVSS | high polyreactivity
12 | QVQLVESGGGLVQAGGSLRLICAASGNIFTQYGMGWYRQAPGKERELVAAISRRGGSTYYADSVKGRFTISRDNAKNTVYLQMNSLKPEDTAVYYCARRTNRPPWGFEYWGQGTQVTVSS | high polyreactivity
13 | QVQLVESGGGLVQAGGSLRLICAASGNTFSAYGMGYYRQAAGKERELVAGITNGGSTNYADSVKGRFTISRDNAMNTVYLQMNSLKPEDTAVYYCATVQYVEPPTPVDYWGQGTQVTVSS | low polyreactivity
14 | QVQLVESGGGLVQAGGSLRLICAASGNTFYYYAMGWYRQAPGKERELVASITSTARTYYADSVKGRFTISRDNAKNTGYLQMNSLKPEDTAVYYCNAKEHYATRSDSCGQGTQVTVSS | high polyreactivity
15 | QVQLVESGGGLVQAGGSLRLICAASGPTFTKANAMVWYRQAPGKERELVAAITDGGSTYADSVKGRFTNSRDNSKNTVYLQMNCLKPEDTAVYYCAKENEVFYDASYDYWGQGTQVTVSS | low polyreactivity
16 | QVQLVESGGGLVQAGGSLRLICAASGRIFCRNTMGWYRQAPGKERELVAAINYSGGRTYYADSVKGRFTISRDNAKNTVYLLMNSLKPEDTAVYYCAATPPVATNGRYYYWGQGTQVTVSS | low polyreactivity
17 | QVQLVESGGGLVQAGGSLRLICAASGRIFGDNAMGWYRQAPGKERELVAGIRWRADRTYYADSVKGRFTISRDNAKNTFYLQMNSLKPEDTAVYYCAARGGGYYDFDYWGQGTQVTVSS | low polyreactivity
18 | QVQLVESGGGLVQAGGSLRLICAASGRIFGVYAKGWYRQAPGKERDFVATNSNRGGGSTYYADSVKGRFTISRDNAMNTVYLQMNSLKPEDTSVYYCNVRARYPFGYDYWGQGTQVTVSS | high polyreactivity
19 | QVQLVESGGGLVQAGGSLRLICAASGRIFGYNAMGWSRQAPGKERELVAAIRGSGSTYYADSVKGRFTISRDNAKNTVYLQMNSLKPEDTAVYYCAARTSSTKYYYWGQGTQVTVSS | high polyreactivity
20 | QVQLVESGGGLVQAGGSLRLICAASGRIFHPYAMAWYRQAPGKERELVATISWSGGSTTYEDSVKGRFTISRDNAKNTVYLQMNSLKPEDTAVYYCNADYWWSYVRFVYWGQGTQVTVSS | low polyreactivity
21 | QVQLVESGGGLVQAGGSLRLICAASGRIFKNNAMGWYRQAPGKEREFVAAISSIGGRTYYADSVKGRFTISRDNAKNTVYLQMISLKPEDTAVYYCAARGYTGGLWYDYWGQGTQVTVSS | high polyreactivity

Row | Sequence | polyreactivity (PSR sort gate)
22 | QVQLVESGGGLVQAGGSLRLICAASGRIFLRNDMGWYRQAPGKERELVAGISSDGSTYYADSVNGRFTISRDNAKNTVYLQMNSLKPEDTAVYYCAAERWGNPTDYQFWRPYDYWGQGTQVTVSS | low polyreactivity
23 | QVQLVESGGGLVQAGGSLRLICAASGRIFRGNAMGWYRQAPGKEMELVDTITIRGGSTYYADSVKGRFTISRDNAKNTVYLKMNSLIPEDTAVYYCNTRTYGYLTQKYDYWGQGTQVTVSS | high polyreactivity
24 | QVQLVESGGGLVQAGGSLRLICAASGRIFRYYAMGWYRQAPGKERELVASISWRGGSTYYADSVKGRFTISRDNAKNTVYLQMNSLKPDDTAVYYCNAAPGAFYRWWGFGSDYWGQGTQVTVSS | high polyreactivity
25 | QVQLVESGGGLVQAGGSLRLICAASGRIFYINAMGWYRQPPGKERELVAAITGGDGSTTYADSVKGRFTISRDNAKNTVYLQMNSLKPEDTAVYYCYADTARKYAESQFDHWGQGTQVTVSS | low polyreactivity
26 | QVQLVESGGGLVQAGGSLRLICAASGRIFYNYVMGCYRQAPGKERDLVAAISVSSGNTYYADSVKGRFTISRDYAKITVYLQMNSLKPEDTAVYYCARLRTVGGYSKYDYWGQGTQVTVSS | low polyreactivity
27 | QVQLVESGGGLVQAGGSLRLICAASGRIIARNAMGWYRQAPGKERELVAAITARGARTYYADSVKGRFTISRDNAKNTVYLQMNSLKPEDTAVYYCAVVQGNVYYTGDDYWGQGTQVTVSS | high polyreactivity
28 | QVQLVESGGGLVQAGGSLRLICAASGRILSYYAMGWYRQAPGKERELVATINSGGSTNYADSVKGRFTISRDNAKNTVYLEMNSLKPEDTAVYYCAASPVWWYEYWGQGTQVNVSS | low polyreactivity
29 | QVQLVESGGGLVQAGGSLRLICAASGRILYGNVMGWYRQAPGKERELVAAIDSSGATTYYADSVKGRFTISRDNAKNTVYLQMNSLKPEDTAVYYCAAEVTSFSFGGDATEYYWGQGTQVTVSS | low polyreactivity
30 | QVQLVESGGGLVQAGGSLRLICAASGRISAFNAMGWYRQAPGKERELVAAINVSGGNTYYADSVKGRFTISRDNAKNTVYLQMNSMKPEDTAVYYCAAERRRWGLDYYYWGQGTQVTVSS | high polyreactivity
31 | QVQLVESGGGLVQAGGSLRLICAASGRIYYGYAMGWYRQAPGKERELVSTITWSGGSTYYADSVKGRFTISRDNAKNTVYLQMNSLKPEDTAVYYCAAYSPYIYQAYRYDYWGQGTQVTVSS | low polyreactivity
32 | QVQLVESGGGLVQAGGSLRLICAASGRTFAYNAMGWYRQAPGKERELVAAISYRGTTTYYADSVKGRFTISRDNAKNTVYLQMNSLKPEDTAVYYCNKVGTRFSAYSSGFVLSEYYYWGQGTQVTVSS | high polyreactivity
33 | QVQLVESGGGLVQAGGSLRLICAASGRTFAYYAMGWYIQAPGKERELVAAISSSGGRTYYADSVKGRFTISRDNAKNTVYLQMNSLKPEDTAVYFCAAYTTVKKNGYWGQGTQVTVSS | high polyreactivity
34 | QVQLVESGGGLVQAGGSLRLICAASGRTFDHNAMGWYRQAPGKERELVAAITWSGGITDYADSVKRPFTISRDNAKNTVYLQMNSLKPEDTAVWGQGTQVTVSS | low polyreactivity
35 | QVQLVESGGGLVQAGGSLRLICAASGRTFDRYDMGWYRPAPGKERALVATISSSGGSTYYADSVKGRFTISRDNAKNTVYLQMNSLKPEDTAVYYCAADPSGYYWGQGSQVTVSS | low polyreactivity
36 | QVQLVESGGGLVQAGGSLRLICAASGRTFGVYAMGWYRQAPGKERELVADITSGGGTYYADSVKGRFTILRDNAKNTFYLQMNSLKPEDTAVYYFAARKWYYAYDYWGQGTQVTVSS | high polyreactivity
37 | QVQLVESGGGLVQAGGSLRLICAASGRTFKFNAMGWYRQAPGKERELVARITGGRTNYADSVKGRFTISRDNAKNTVYLQLNSLKPEDTAVYYCAADRYYGYSQDRRRYGYWGQGTQVTVSS | high polyreactivity
38 | QVQLVESGGGLVQAGGSLRLICAASGRTFKYYAMGWYRPAPGKERELVATISFRGGSTYYADSVKGRFTISRDNAKNTVYLQMNSLKPEDTSVYYCAATTPYYTPRRRNDYWGQGTQVTVSS | high polyreactivity
39 | QVQLVESGGGLVQAGGSLRLICAASGRTFNINGMGWYRQAPGKERELVAAITTSGGSTYYADSVKGRFTISRDNAKNTVYLQMNSLKPEDTAVYYCAADVFSRKYLYGDYDYWGQGTQVTVSS | high polyreactivity
40 | QVQLVESGGGLVQAGGSLRLICAASGRTFPGYGMGWYRQAPGKERELVAVITSNGGITYYADSVKGRFTISRDNAKNTVYLQMNSLKPEDTAVYYCAAYEIYNEFDSWGQGTQVTVSS | low polyreactivity
41 | QVQLVESGGGLVQAGGSLRLICAASGRTFPRYTMGWYRQEPGNERELVAAISWRGGRTYYADSVKGRFTISLDNAKNTVYLLMNSLKPEDTAVYYCNAQKRDGSMGYWGQGTQVTVSS | high polyreactivity
